Assay results taken from US9663800B2, “Alkane exporter and its use” (Nanyang Technological University, priority 2012, dated 2017).

Assays:
S. cerevisiae BY4741 [1] = test: Alkane susceptibility test in liquid culture; assay type: cell-based, Saccharomyces cerevisiae
Procedure: (§1) FIG. 2. Alkane susceptibility test for S. cerevisiae. The alkane susceptibility was tested in cells expressing ABC2/3 or with empty plasmid. (A) Alkane susceptibility test on agar plate. Serial dilutions of cells expressing ABC2/3 were spotted on agar plates with alkanes (decane, undecane) as vapour phase. Plates were incubated at 28° C. for 2 days. (B) Alkane susceptibility test in liquid culture. Overnight cell culture was diluted into induction medium (final OD600=0.4) with different alkanes (decane & undecane) concentrations. The plates were incubated for 48 hr at 28° C. The OD600 value of each sample was determined and plotted against its corresponding alkane concentration. Symbols for strains are: control sample with empty plasmid (open circle), cells expressing ABC2 (filled circle), cell expressing ABC3 (filled triangle).
Overnight culture was diluted into 5 ml induction medium in 50 ml glass bottle (Sigma) at an initial OD600 of 0.4. Alkanes were added as different final concentration. Bottles were sealed tightly with butyl rubber stopper (Sigma) and silver aluminum seal (Sigma). Liquid culture was performed at 28° C. with shaking. Growth was monitored by measuring the OD600 at different time point. Cell culture used for time point OD checking was collected from the glass bottle using needle and syringe.
To further analyze the effect of ABC2 and ABC3 toward decane and undecane, alkane susceptibility tests in liquid culture were conducted. […] With the expression of ABC2, decane tolerance was boosted about 80-fold (20% vs. 0.25% decane) and cells can survive in 20% undecane. For ABC3, decane tolerance is increased slightly by about 3-fold (0.75% vs. 0.25% decane) and cells are resistant to 20% undecane. It is apparent that the expression of ABC2 and ABC3 transporters improved the tolerance toward C10 and C11 alkanes.

ABC2 mRNA = test: Quantitative RT-PCR of ABC2 transcripts after alkane treatment; assay type: cell-based; conditions: Y. lipolytica CLIB122, 24 h alkane treated vs. untreated, normalized to actin, p<0.05
Source text: FIG. 3. mRNA transcripts levels of ABC2 and ABC3 in Y. lipolytica. Quantitative RT-PCR analysis of ABC2 (A) and ABC3 (B) in Y. lipolytica cells corresponding to treatment with octane, nonane, decane, undecane and dodecane (C8-C12). Each value of qRT-PCR was normalized to β-actin expression levels and expressed as the fold change relative to the levels detected in control samples, which were cells without alkane treatment and set equal to 1. Error bars represent the SD of triplicate.
To assess whether ABC1, ABC2, ABC3 and ABC4 are involved in alkane transport in Y. lipolytica, we analysed the effects of alkanes with different chain length (C8-C12) on the transcription levels of these four ABC transporter genes using quantitative RT-PCR.
Total RNA samples from 24 h alkane treated and untreated Y. lipolytica CLIB122 cells were prepared using RNeasy Mini Kit (Qiagen), followed by cDNA synthesis using H minus Reverse transcriptase kit (Fermentas). Quantitative RT-PCR analysis was performed on a Bio-Rad iQ5 real-time PCR detection system using SsoFast EvaGreen Supermix kit (Bio-Rad). The actin gene (YALI0D08272g) was used as reference gene for Y. lipolytica. Relative mRNA levels were derived using comparative CT method.

S. cerevisiae BY4741 [2] = test: Intracellular alkane accumulation (GC-FID) in cells expressing ABC2/3; assay type: cell-based, Saccharomyces cerevisiae; conditions: S. cerevisiae BY4741 expressing the transporter, 48 h, control with empty plasmid
Procedure: FIG. 1. Intracellular alkane accumulation by ABC2 and ABC3. S. cerevisiae BY4741 with and without ABC2/3 were cultured under exposure of 0.5% alkane or 20% undecane. After 48 h incubation, intracellular alkane levels were measured. Intracellular alkane levels were normalized to that of control carrying empty plasmid. Data shown are the mean±SD of four biological replicates.
Intracellular alkane accumulation was analysed with GC-FID after 48 h incubation with 0.5% decane or 20% undecane.
After induction for 48 h with or without addition of alkanes, S. cerevisiae cells transformed with pYES2, pYES2ABC2 and pYES2ABC3 were harvested at 6000 g for 5 min at 4° C. After washing with 50 mM Tris.Cl, cells were equally divided into two parts, one part for alkane GC analysis and the other for determination of total protein concentration. For GC analysis, cell pellets were re-suspended in freshly prepared Chloroform/Methanol (v/v, 2:1). Dodecane was added into cell suspension as an internal standard. Acid-washed glass beads were added until the suspension was covered. Cells were then lysed by mechanical agitation using FastPrep-24 (MPBio) for 6 min at 6 m/s. The crude extract was obtained by pipette. After addition of autoclaved ddH2O, the crude extract was emulsified for 10 min by inversion. After centrifuge, the crude extract was separated into two phases. The bottom phase containing alkane was transferred into a new 1.5 ml microcentrifuge tube and purified as above with HPLC grade chloroform and autoclaved ddH2O until particulate matter was no longer observable. The purified solution was transferred into a clear GC vial for GC analysis. To check the total protein concentration, Cell pellets were re-suspended into 50 mM Tris.Cl and lysed via mechanical agitation with acid-washed glass beads using FastPrep-24 for 6 min at 6 m/s. Protein concentration of obtained crude extract was determined using the Bradford protein assay (Bio-Rad). Intracellular alkane levels were normalized to internal standard and cell lysate protein content.

S. cerevisiae BY4741 [3] = test: Alkane susceptibility test on agar plate; assay type: cell-based, Saccharomyces cerevisiae; conditions: cells expressing the transporter, 28° C., 2 days
Procedure: as §1
Alkane susceptibility test on plates was performed according to the methods of Mauersberger et al.. Exponentially growing cells in induction medium were centrifuged and re-suspended with induction medium at OD600=1. Ten microliter aliquots of successive 10-fold dilutions (non diluted, 10-1, 10-2, 10-3) of cells were spotted onto the induction medium plate. Medium chain alkanes were supplied as vapour phase by placing 200 μl alkane on a sterile filter paper in the lid of the petri dish. Plates were incubated at 28° C. for 2 days.
Toxicity test was implemented to study the effect of ABC2 and ABC3 on the tolerance of the cells toward alkanes. The toxic effects of alkanes on S. cerevisiae with ABC2 and ABC3 were measured through alkane susceptibility test on agar plates. […] It was observed that the expression of ABC2 would lead higher tolerance toward decane than ABC3.

Molecule: CCCCCCCCCCC [undecane]
- alkane concentration causing a significant decrease in viability of the control cells (S. cerevisiae BY4741 [1]; control cells with empty plasmid, 48 hr, 28° C.): 20%
- mRNA levels of ABC2 (ABC2 mRNA): significantly increased

Molecule: CCCCCCCC [octane]
- mRNA levels of ABC2 (ABC2 mRNA): significantly increased

B1: ABC2: Y. lipolytica ABC transporter, SEQ ID NO. 4, GenBank CAG82364, heterologously expressed in S. cerevisiae (protein, listed as Yarrowia lipolytica)
chain: MEQTPPDYTGLDKNIDAEVRSIAESMYQTRREGVNDSDTDEELQRTNTIQPNLNVNPFLDTSDPQLDPLSKEFNSRKWIKTILGLKARFGNSRSISAGVSFKNLSAFGYGGGNDYQKTFTNSVMAIGPMIKKVLGGNKGSEVQILRHFDGLVRAGETCVVLGRPGSGCTTFLKSVACETYGFHLGEKSEWNYQGVPRDVMQKNARGEIVYNAEVDVHFPHLTVGDTLLFAALARTPQNRLEGVSREQHATHVRDVSMAMLGLTHTMDTKVGNDFVRGVSGGERKRVSIAESVVCGAPLQCWDNSTRGLDAANATEFIRSLRLSAEMTDASMFVSLYQASQEAYDMFDKVCVLYEGRQIYFGKTTEAKQFFLDLGFDCADRQTTGDFLTSLTNPIERIIRPGWESRVPRTPDDFEKCWLESEARQLLLQDIDEFNNEFVLGGPALDNFMGLRKDAQAKHTRVQSPYTISWPMQTRLCLWRGFLRIKGDMSTDIATVFGNFVMALVLSSMFYNMPQTTESFFSRGALLFFAILINAFASILEILSLYEQRPIVDKQNRYAMYHPAADALAAIITTFPTKTLTLVSVNLTIYFMTNLRREVGPFFIFFLFSLLCTMAMSMIFRTIGSVTKTLEQALAPASIIILALVIYTGFSLPISYMHGWARWINWLNPVAYGFEAVMVNEFRNREYECSMFVPSGGAYENVSLDYRSCAAVGAEPGLRFVNGDAFINQSYEYYNAHLWRNMGILFGFIIFFGAFYLFAVEYIQGAKSKGEVLVFRKEHIKKQRKEKNGDIESGVTMAGEKGTQESESSNTSINLQAQRGIYQWKDVCYDIKVKDGERRLLDHVDGFVKPGTLTALMGASGAGKTTLLDVLADRKSTGVVTGEMLVNGEHRDGSFQRKTGYVQQQDLHTATATVRESLEFSALLRQPSSIPESEKLAYVDEVIRILEMETYADAVVGVPGEGLNVEQRKRLTIGVELAAKPELLLFLDEPTSGLDSQTAWSIVKLLKKLAANGQAILCTIHQPSAILFQEFDRLLFLASGGRTVYYGDIGPQSSILTEYFERNGADPCPKQGNPAEWMLEVIGAAPGSTAKRDWPVVWAESPERAAKREELDEMARTVERVQTNTTERDSTGYSDSDQFAVGWWTQFKIVSKRQFQALWRTPSYLWSKVFLCAASAIFIGFSFFKAPNDMQGLQNKMFSFFMLFLIFNTVVEQIIPQFDKMRELYEARERSSKTYSWQVFMGSNMVVELIWQFFMGVIVFFCFYYPVGFQWTAEYNDSVHERGGLFFLYVLLLFLYNSTFAHMLIAGIDNKDTAAQIGTLLFTLMLLFCGVLATKEQMPGFWVFMYRVSPLTYFVGGMMATGMGRAPVTCSPHELVRFPAVPGKSCGEYMDGFISALGDSAGYLVSSSADMCEYCPMKSSDQFLDSVDISYTQRWRNWGILWAYPLFNIFAAFALYYFFRVPKKSKAQKA
- decane tolerance increase (S. cerevisiae BY4741 [1]; cells expressing the transporter vs. control (0.25% decane), 48 hr, 28° C., OD600): about 80 fold
- survival in 20% undecane (S. cerevisiae BY4741 [1]; cells expressing the transporter, 20% undecane): can survive
- decane concentration tolerated (S. cerevisiae BY4741 [1]; cells expressing the transporter, 48 hr, 28° C., control 0.25% decane): 20%
- lower intracellular decane level relative to the control (S. cerevisiae BY4741 [2]; 0.5% decane): ~5 fold
- reduction of intracellular undecane level compared to the control sample (S. cerevisiae BY4741 [2]; 20% undecane): approximately 30 fold
- cell tolerance toward decane (S. cerevisiae BY4741 [3]; decane as vapour phase): considerably improved
- cell tolerance toward undecane (S. cerevisiae BY4741 [3]; undecane as vapour phase): considerably improved
